T1: SIPA1L2, Q9P2F8
T1 sequence (Q9P2F8 945-1036, limits assumed, looked up): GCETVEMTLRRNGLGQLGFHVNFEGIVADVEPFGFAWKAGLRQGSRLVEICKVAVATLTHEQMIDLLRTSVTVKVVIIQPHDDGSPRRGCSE

T2: CARD11, Q9BXL7
T2 sequence (Q9BXL7 662-765, limits assumed, looked up): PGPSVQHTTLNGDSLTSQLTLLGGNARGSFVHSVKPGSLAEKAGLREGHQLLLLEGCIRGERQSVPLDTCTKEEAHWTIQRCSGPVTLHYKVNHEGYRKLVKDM

T3: GRIP1_2, Q9Y3R0
T3 sequence (Q9Y3R0 145-248, limits assumed, looked up): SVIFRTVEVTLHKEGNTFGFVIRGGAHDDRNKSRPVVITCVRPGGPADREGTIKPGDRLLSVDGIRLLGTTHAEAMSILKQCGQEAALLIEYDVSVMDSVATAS

T4: DLG3_3, Q92796
T4 sequence (Q92796 374-475, limits assumed, looked up): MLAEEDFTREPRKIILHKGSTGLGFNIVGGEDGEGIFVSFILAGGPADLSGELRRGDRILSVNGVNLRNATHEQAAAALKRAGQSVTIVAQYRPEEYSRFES

T5: MPP6, Q9NZW5
T5 sequence (Q9NZW5 125-219, limits assumed, looked up): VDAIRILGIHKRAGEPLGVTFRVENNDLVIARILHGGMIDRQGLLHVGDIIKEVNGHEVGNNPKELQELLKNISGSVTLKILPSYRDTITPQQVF

T6: RHPN1, Q8TCX5
T6 sequence (Q8TCX5 508-602, limits assumed, looked up): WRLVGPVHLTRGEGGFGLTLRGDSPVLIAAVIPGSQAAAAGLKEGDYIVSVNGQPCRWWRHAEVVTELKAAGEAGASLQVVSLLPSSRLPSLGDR

T7: DLG3_2, Q92796
T7 sequence (Q92796 221-321, limits assumed, looked up): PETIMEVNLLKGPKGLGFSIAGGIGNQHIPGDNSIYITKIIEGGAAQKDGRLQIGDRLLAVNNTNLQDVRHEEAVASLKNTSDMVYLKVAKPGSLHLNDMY

T8: SNTG2, Q9NY99
T8 sequence (Q9NY99 68-166, limits assumed, looked up): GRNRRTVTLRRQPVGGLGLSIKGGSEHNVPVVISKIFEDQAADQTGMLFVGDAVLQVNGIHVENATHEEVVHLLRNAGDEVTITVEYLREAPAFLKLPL

T9: MPP7, Q5T2T1
T9 sequence (Q5T2T1 134-230, limits assumed, looked up): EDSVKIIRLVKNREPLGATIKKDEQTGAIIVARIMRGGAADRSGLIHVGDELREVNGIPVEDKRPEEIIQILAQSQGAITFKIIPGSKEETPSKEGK

T10: LNX2_3, Q8N448
T10 sequence (Q8N448 463-564, limits assumed, looked up): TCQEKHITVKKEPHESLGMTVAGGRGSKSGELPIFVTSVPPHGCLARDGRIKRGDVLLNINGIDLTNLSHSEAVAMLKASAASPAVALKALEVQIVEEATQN

T11: MPP2, Q14168
T11 sequence (Q14168 180-250, limits assumed, looked up): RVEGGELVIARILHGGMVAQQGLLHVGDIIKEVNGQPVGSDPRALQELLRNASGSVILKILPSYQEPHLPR


What was measured:
Assay in all cases: holdup assay
Set-up in all cases: key: below the threshold = too weak to quantify, mostly under pKd 3.1 to 4
Conditions in all cases: plain residues with an end cap or a label only (N-terminal biotin on a linker: ado-ado)
TJP2_1, Q9UDY2 = target: TJP2_1, Q9UDY2
PDLIM1, O00151 = target: PDLIM1, O00151
SIPA1L2, Q9P2F8 = target: T1, SIPA1L2, Q9P2F8
GIPC2, Q8TF65 = target: GIPC2, Q8TF65
SCRIB_3, Q14160 = target: SCRIB_3, Q14160
ARHGEF12, Q9NZN5-2 = target: ARHGEF12, Q9NZN5-2
CARD11, Q9BXL7 = target: T2, CARD11, Q9BXL7
GRIP1_2, Q9Y3R0 = target: T3, GRIP1_2, Q9Y3R0
Inadl_4, Q8NI35 = target: Inadl_4, Q8NI35
PTPN3, P26045 = target: PTPN3, P26045
DLG3_3, Q92796 = target: T4, DLG3_3, Q92796
MPP6, Q9NZW5 = target: T5, MPP6, Q9NZW5
GRIP2_5, Q9C0E4 = target: GRIP2_5, Q9C0E4
GRIP2_4, Q9C0E4 = target: GRIP2_4, Q9C0E4
RHPN1, Q8TCX5 = target: T6, RHPN1, Q8TCX5
FRMPD2_2, Q68DX3 = target: FRMPD2_2, Q68DX3
DLG3_2, Q92796 = target: T7, DLG3_2, Q92796
SNTG2, Q9NY99 = target: T8, SNTG2, Q9NY99
MPP7, Q5T2T1 = target: T9, MPP7, Q5T2T1
IL16_4, Q14005 = target: IL16_4, Q14005
LNX2_3, Q8N448 = target: T10, LNX2_3, Q8N448
GRIP2_7, Q9C0E4 = target: GRIP2_7, Q9C0E4
SCRIB_1, Q14160 = target: SCRIB_1, Q14160
MPP2, Q14168 = target: T11, MPP2, Q14168
NHERF4_1, Q86UT5-2 = target: NHERF4_1, Q86UT5-2
NOS1, P29475 = target: NOS1, P29475
Sequence of NOS1, P29475 (P29475 9-101): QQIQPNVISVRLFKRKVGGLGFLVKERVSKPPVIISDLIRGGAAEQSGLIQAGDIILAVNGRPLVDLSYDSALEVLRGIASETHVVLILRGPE

Sequence of PDLIM1, O00151 (O00151 1-87): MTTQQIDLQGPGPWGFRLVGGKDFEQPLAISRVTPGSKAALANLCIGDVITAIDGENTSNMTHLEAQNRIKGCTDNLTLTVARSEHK
Sequence of PTPN3, P26045 (P26045 505-587): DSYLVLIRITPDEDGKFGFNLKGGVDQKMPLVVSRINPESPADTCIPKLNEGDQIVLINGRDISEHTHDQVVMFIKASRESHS
Sequence of SCRIB_1, Q14160 (Q14160 718-814): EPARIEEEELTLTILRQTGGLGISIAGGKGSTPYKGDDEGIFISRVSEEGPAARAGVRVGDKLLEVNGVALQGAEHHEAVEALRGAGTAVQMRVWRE
Sequence of GIPC2, Q8TF65 (Q8TF65 112-203): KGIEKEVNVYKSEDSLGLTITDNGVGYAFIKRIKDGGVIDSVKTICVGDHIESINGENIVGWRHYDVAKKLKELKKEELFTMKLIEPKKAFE
Sequence of IL16_4, Q14005 (Q14005 1229-1329): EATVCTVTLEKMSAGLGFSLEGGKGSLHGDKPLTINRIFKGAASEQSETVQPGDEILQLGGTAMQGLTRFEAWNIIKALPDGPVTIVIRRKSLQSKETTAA
Sequence of GRIP2_4, Q9C0E4 (Q9C0E4 446-548): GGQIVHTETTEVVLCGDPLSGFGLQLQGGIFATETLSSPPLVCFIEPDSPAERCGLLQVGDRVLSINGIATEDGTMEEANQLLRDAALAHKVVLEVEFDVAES
Sequence of TJP2_1, Q9UDY2 (Q9UDY2 24-128): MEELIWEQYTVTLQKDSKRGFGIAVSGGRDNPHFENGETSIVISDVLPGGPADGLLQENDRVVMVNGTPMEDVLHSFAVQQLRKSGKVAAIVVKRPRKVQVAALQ
Sequence of Inadl_4, Q8NI35 (Q8NI35 547-651): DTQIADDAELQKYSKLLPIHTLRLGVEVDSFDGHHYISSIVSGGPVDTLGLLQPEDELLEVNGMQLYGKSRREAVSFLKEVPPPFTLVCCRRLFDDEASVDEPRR
Sequence of ARHGEF12, Q9NZN5-2 (Q9NZN5 other isoform, or with tags, fused parts or gaps): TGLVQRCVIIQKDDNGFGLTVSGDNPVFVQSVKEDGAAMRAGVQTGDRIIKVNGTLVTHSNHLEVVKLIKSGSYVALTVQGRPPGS
Sequence of NHERF4_1, Q86UT5-2 (Q86UT5 other isoform, or with tags, fused parts or gaps): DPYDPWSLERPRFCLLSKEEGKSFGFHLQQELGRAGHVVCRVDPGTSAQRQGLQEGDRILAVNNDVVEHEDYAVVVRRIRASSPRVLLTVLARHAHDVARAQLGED
Sequence of GRIP2_5, Q9C0E4 (Q9C0E4 544-642): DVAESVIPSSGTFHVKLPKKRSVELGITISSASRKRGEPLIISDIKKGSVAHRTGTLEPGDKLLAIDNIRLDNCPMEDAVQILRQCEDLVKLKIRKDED
Sequence of SCRIB_3, Q14160 (Q14160 999-1103): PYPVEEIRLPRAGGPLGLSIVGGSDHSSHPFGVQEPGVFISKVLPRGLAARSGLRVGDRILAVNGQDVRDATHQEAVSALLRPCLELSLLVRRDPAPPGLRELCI
Sequence of FRMPD2_2, Q68DX3 (Q68DX3 944-1038): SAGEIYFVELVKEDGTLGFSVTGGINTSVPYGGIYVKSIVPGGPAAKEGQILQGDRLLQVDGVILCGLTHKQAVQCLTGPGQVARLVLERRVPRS
Sequence of GRIP2_7, Q9C0E4 (Q9C0E4 934-1023): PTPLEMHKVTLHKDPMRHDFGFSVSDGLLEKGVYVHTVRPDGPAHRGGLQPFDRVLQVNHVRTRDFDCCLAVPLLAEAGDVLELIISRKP

Binder	pKd (TJP2_1, Q9UDY2)	pKd (PDLIM1, O00151)	pKd (SIPA1L2, Q9P2F8)	pKd (GIPC2, Q8TF65)	pKd (SCRIB_3, Q14160)	pKd (ARHGEF12, Q9NZN5-2)	pKd (CARD11, Q9BXL7)	pKd (GRIP1_2, Q9Y3R0)	pKd (Inadl_4, Q8NI35)	pKd (PTPN3, P26045)	pKd (DLG3_3, Q92796)	pKd (MPP6, Q9NZW5)	pKd (GRIP2_5, Q9C0E4)	pKd (GRIP2_4, Q9C0E4)	pKd (RHPN1, Q8TCX5)	pKd (FRMPD2_2, Q68DX3)	pKd (DLG3_2, Q92796)	pKd (SNTG2, Q9NY99)	pKd (MPP7, Q5T2T1)	pKd (IL16_4, Q14005)	other results
NRVDSKETEC [ADAM17, P78536]	below the threshold	below the threshold	below the threshold	4.27	4.58	3.95	below the threshold	3.59	below the threshold	4.98	3.95	below the threshold	below the threshold	below the threshold	below the threshold	below the threshold	4.67	4.06	3.65	3.6	pKd (LNX2_3, Q8N448): below the threshold; pKd (GRIP2_7, Q9C0E4): below the threshold; pKd (SCRIB_1, Q14160): 4.49; pKd (MPP2, Q14168): below the threshold; pKd (NHERF4_1, Q86UT5-2): 3.68; pKd (NOS1, P29475): below the threshold
SVISRREWYV [NECTIN3, Q9NQS3]	4.63	below the threshold	below the threshold	below the threshold	3.72	3.64	below the threshold	below the threshold	below the threshold	4.25	3.71	4.48	below the threshold	below the threshold	below the threshold	4.14	3.66	below the threshold	4.93	below the threshold	pKd (LNX2_3, Q8N448): below the threshold; pKd (GRIP2_7, Q9C0E4): 5.47; pKd (SCRIB_1, Q14160): below the threshold; pKd (MPP2, Q14168): 4.57; pKd (NHERF4_1, Q86UT5-2): 3.49; pKd (NOS1, P29475): 4.04

Second part, led by results:

pKd (TJP2_1, Q9UDY2)	pKd (PDLIM1, O00151)	pKd (SIPA1L2, Q9P2F8)	pKd (GIPC2, Q8TF65)	pKd (SCRIB_3, Q14160)	pKd (ARHGEF12, Q9NZN5-2)	pKd (CARD11, Q9BXL7)	pKd (GRIP1_2, Q9Y3R0)	pKd (Inadl_4, Q8NI35)	pKd (PTPN3, P26045)	pKd (DLG3_3, Q92796)	pKd (MPP6, Q9NZW5)	pKd (GRIP2_5, Q9C0E4)	pKd (GRIP2_4, Q9C0E4)	pKd (RHPN1, Q8TCX5)	pKd (FRMPD2_2, Q68DX3)	pKd (DLG3_2, Q92796)	pKd (SNTG2, Q9NY99)	pKd (MPP7, Q5T2T1)	pKd (IL16_4, Q14005)	Binder	other results
below the threshold	below the threshold	below the threshold	below the threshold	below the threshold	below the threshold	below the threshold	below the threshold	below the threshold	4.17	below the threshold	below the threshold	below the threshold	below the threshold	3.67	below the threshold	below the threshold	below the threshold	below the threshold	3.52	AEDEEIQTKM [UNC93A, Q86WB7]	pKd (LNX2_3, Q8N448): below the threshold; pKd (GRIP2_7, Q9C0E4): below the threshold; pKd (SCRIB_1, Q14160): below the threshold; pKd (MPP2, Q14168): below the threshold; pKd (NHERF4_1, Q86UT5-2): below the threshold; pKd (NOS1, P29475): below the threshold
5.19	4.1	below the threshold	below the threshold	5.02	4.84	3.64	3.51	below the threshold	4.62	below the threshold	below the threshold	below the threshold	below the threshold	4.7	4.27	below the threshold	below the threshold	3.72	below the threshold	LDKESFLTWL [YAP1, P46937]	pKd (LNX2_3, Q8N448): below the threshold; pKd (GRIP2_7, Q9C0E4): 4.05; pKd (SCRIB_1, Q14160): 4.47; pKd (MPP2, Q14168): below the threshold; pKd (NHERF4_1, Q86UT5-2): 4.15; pKd (NOS1, P29475): 4.03

Reference: article PMC9482650, “Quantitative fragmentomics allow affinity mapping of interactomes” (Nature Communications, 2022)
